Results reported in the supplement of paper PMC10126150.
± gives the standard deviation of the averaged measurements.
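Further: ATP exposure 15 min at 22 °C before imaging.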

The sequences below were run on ATP (assay: switch fluorescence ratio, 500 uM ATP over buffer (Cy3 cluster intensity, sum of 5 cycles each) (fold (ratio)); higher = stronger signal-on switching upon ATP binding; sequences stand for … in TCGTCGGCAGCGTCAGATGTGTATAAGAGACAGTTTTTTTTTTTTTTTTTTTTTTTTT…TC). Conditions: aptamer strand: ATP DNA aptamer (quencher-CACCTGGGGGAGTATTGCGGAGGAAGG + anchor), 100 nM annealed; ATP concentration: 500 uM.
Method in brief: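 Between each of five buffer/ATP cycles, the flow-cell was stripped with NaOH and re-annealed. Each cycle imaged Cy3-labelled switching-strand clusters, annealed to 100 nM quencher-labelled ATP aptamer on a modified Illumina MiSeq flow-cell, first in selection buffer and then after 15 min with 500 uM ATP at 22 °C. The fluorescence ratio is summed target-cycle over summed buffer-cycle Cy3 intensity per cluster, averaged per switch-domain sequence, with clusters outside 100-1000 RFU excluded.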
For TATGAAATAG, the switch fluorescence ratio was 0.99 ± 0.034.
GGTTTATTGT showed a switch fluorescence ratio of 0.993 ± 0.056.
Sequence TACGAATAAT has a switch fluorescence ratio of 1.1 ± 0.075.
GGGTAAGCTG gave a switch fluorescence ratio of 1.04 ± 0.081.
CTGGGTTGGG was tested, and the switch fluorescence ratio was 1.01 ± 0.043.
Sequence GGGGGTTGGA has a switch fluorescence ratio of 1.01 ± 0.032.
In the case of GGCTACAGGG, the switch fluorescence ratio is reported as 0.999 ± 0.011.
For ATTTTGGGGT, the switch fluorescence ratio was 1 ± 0.014.
TAAATTTAAG gave a switch fluorescence ratio of 1 ± 0.027.
GGATCTTAGT showed a switch fluorescence ratio of 0.996 ± 0.013.
Work on CGTAATGGCA yielded a switch fluorescence ratio of 1.01 ± 0.017.
CGGCTGGACG was tested, and the switch fluorescence ratio was 0.958 ± 0.047.
Sequence TCATCATTTT has a switch fluorescence ratio of 0.996 ± 0.0019.
With TTAAACCGGT the switch fluorescence ratio was 1.03 ± 0.037.
CTACGGGATT gave a switch fluorescence ratio of 1.33 ± 0.43.
For ATCGAGTAGG, the switch fluorescence ratio was 1.008 ± 0.005.
With AAATCGGAAT the switch fluorescence ratio was 1.25 ± 0.27.
For TGAGATTTAG, the switch fluorescence ratio was 0.988 ± 0.026.
Sequence TAAAGAAACT has a switch fluorescence ratio of 1.28 ± 0.35.
For CGGGCTTGGG, the switch fluorescence ratio was 0.968 ± 0.0031.
With TTCCGTATGA the switch fluorescence ratio was 1.05 ± 0.043.
Sequence TTATAGTATG has a switch fluorescence ratio of 0.99 ± 0.043.
With GAAAGCGGCT the switch fluorescence ratio was 1.032 ± 0.0089.
Sequence CGGGGATTGG has a switch fluorescence ratio of 1 ± 0.042.
TTAGGGGCTT showed a switch fluorescence ratio of 1.02 ± 0.033.
ACTGGGATGT gave a switch fluorescence ratio of 1.02 ± 0.0043.
Work on CTGGTTTAGT yielded a switch fluorescence ratio of 0.978 ± 0.016.
ACTATCGGGA showed a switch fluorescence ratio of 1.02 ± 0.037.
CCGCTTTTAT gave a switch fluorescence ratio of 2.69 ± 0.48.
TCTGTCTAGT was tested, and the switch fluorescence ratio was 1.01 ± 0.02.
With GAATGGGATG the switch fluorescence ratio was 1.002 ± 0.0023.
In the case of GGGGGCTAAG, the switch fluorescence ratio is reported as 1.026 ± 0.0039.
TTTGCCGGG showed a switch fluorescence ratio of 1.02 ± 0.0019.
TGGGATGCAT gave a switch fluorescence ratio of 0.991 ± 0.034.
TTGGGTTCGG was tested, and the switch fluorescence ratio was 0.987 ± 0.038.
GAGGCGGGGG showed a switch fluorescence ratio of 0.988 ± 0.012.
Sequence CTGTTGTCGG has a switch fluorescence ratio of 0.989 ± 0.038.
In the case of TTCAAAATCT, the switch fluorescence ratio is reported as 1.04 ± 0.019.
ACTTGAGGTC was tested, and the switch fluorescence ratio was 0.991 ± 0.028.
Work on GGGGCAAATT yielded a switch fluorescence ratio of 1.05 ± 0.12.
Sequence TTCGAGTTGT has a switch fluorescence ratio of 1.006 ± 0.0025.
In the case of GGGTGTACTT, the switch fluorescence ratio is reported as 0.991 ± 0.023.
Work on TTTACTGCTT yielded a switch fluorescence ratio of 0.981 ± 0.044.
CTCTATCAAT was tested, and the switch fluorescence ratio was 1.254 ± 0.0064.
TAGAAGTTGT showed a switch fluorescence ratio of 1 ± 0.022.
CGTGTGGAAA showed a switch fluorescence ratio of 1.02 ± 0.018.
TAGGCTTGAA showed a switch fluorescence ratio of 1.03 ± 0.028.
Sequence AGGTCAGTTT has a switch fluorescence ratio of 0.989 ± 0.017.
TCGCACGTAT was tested, and the switch fluorescence ratio was 1.03 ± 0.043.
CGGAAAAAGG showed a switch fluorescence ratio of 0.992 ± 0.034.
For CAGGGACCTG, the switch fluorescence ratio was 1.03 ± 0.032.
ATTAGGGAGC was tested, and the switch fluorescence ratio was 0.989 ± 0.011.
ATTTGTCAAG gave a switch fluorescence ratio of 0.999 ± 0.016.
In the case of CCATTGTTTT, the switch fluorescence ratio is reported as 0.997 ± 0.018.
In the case of GCTACCATAT, the switch fluorescence ratio is reported as 1.07 ± 0.015.
In the case of TCGGGGCGAG, the switch fluorescence ratio is reported as 1.02 ± 0.023.
Work on GCGATGCCTG yielded a switch fluorescence ratio of 0.973 ± 0.071.
With TGAAATAGGT the switch fluorescence ratio was 0.99 ± 0.036.
TTTATGCTTT was tested, and the switch fluorescence ratio was 1.01 ± 0.024.
For GATGATAAAA, the switch fluorescence ratio was 0.989 ± 0.033.
GTTTGGGTCT showed a switch fluorescence ratio of 0.997 ± 0.013.
For AATCTGTTAT, the switch fluorescence ratio was 0.992 ± 0.033.
AACGTTATGC showed a switch fluorescence ratio of 1.13 ± 0.069.
AGGGATTGAT showed a switch fluorescence ratio of 1.01 ± 0.059.
TATCTAGGGG was tested, and the switch fluorescence ratio was 0.981 ± 0.035.
Sequence ATGGAATGGG has a switch fluorescence ratio of 0.959 ± 0.01.
ATGTTTGCCT was tested, and the switch fluorescence ratio was 1.002 ± 0.0087.
With TGGATGTCAT the switch fluorescence ratio was 1.07 ± 0.059.
GATGGGGCAC showed a switch fluorescence ratio of 1.01 ± 0.013.
Sequence TTCGTGCTTT has a switch fluorescence ratio of 0.995 ± 0.035.
CAAAGGGTTA showed a switch fluorescence ratio of 0.9906 ± 0.0086.
For TGTGACCGAA, the switch fluorescence ratio was 0.9794 ± 0.0017.
AGAGCACTTG gave a switch fluorescence ratio of 1.025 ± 0.0032.
In the case of AAAACGGATT, the switch fluorescence ratio is reported as 0.977 ± 0.014.
In the case of GAGGCTGTAT, the switch fluorescence ratio is reported as 1 ± 0.011.
With GGCTAGAAAA the switch fluorescence ratio was 1 ± 0.0099.
With CGAACGGGGA the switch fluorescence ratio was 1.16 ± 0.049.
In the case of GGCCTGTGTG, the switch fluorescence ratio is reported as 1.02 ± 0.041.
ATTCATCATT showed a switch fluorescence ratio of 1.003 ± 0.0043.
Work on CGTCACCATG yielded a switch fluorescence ratio of 1.037 ± 0.0026.
With ATGTATTATA the switch fluorescence ratio was 1.01 ± 0.013.
AGTGACATCG gave a switch fluorescence ratio of 1.14 ± 0.076.
In the case of TGGGAAGTCA, the switch fluorescence ratio is reported as 0.991 ± 0.012.
With TCATTTGGGG the switch fluorescence ratio was 0.975 ± 0.024.
GATTTGTGAC was tested, and the switch fluorescence ratio was 0.977 ± 0.052.
CGTGCCCGGA was tested, and the switch fluorescence ratio was 1.03 ± 0.032.
AAACGGAG gave a switch fluorescence ratio of 1.007 ± 0.0081.
AACGACTATG gave a switch fluorescence ratio of 1.05 ± 0.029.
GATCTGCCTG showed a switch fluorescence ratio of 0.985 ± 0.029.
TTTTATATGT was tested, and the switch fluorescence ratio was 1.02 ± 0.028.
With GGCAATTGTA the switch fluorescence ratio was 1.03 ± 0.027.
CTCAGGCAAT was tested, and the switch fluorescence ratio was 2.61 ± 0.45.
With TTTAAGGATT the switch fluorescence ratio was 1.21 ± 0.33.
With GCAGTAGTGG the switch fluorescence ratio was 1.2 ± 0.33.
AAGTATGGTA showed a switch fluorescence ratio of 0.965 ± 0.075.
Sequence TCTGGGTTAT has a switch fluorescence ratio of 0.988 ± 0.033.
Sequence GCCTTGATCT has a switch fluorescence ratio of 0.996 ± 0.016.
Sequence CTGCTGGGGT has a switch fluorescence ratio of 1.04 ± 0.018.
Work on AAGGGATTGC yielded a switch fluorescence ratio of 0.995 ± 0.053.
In the case of AGTTAGGGGC, the switch fluorescence ratio is reported as 0.995 ± 0.053.
TTTCTCTGAG gave a switch fluorescence ratio of 1.04 ± 0.033.
Work on GTTTTCGAGC yielded a switch fluorescence ratio of 1.11 ± 0.043.
Sequence GAGGGGGCCC has a switch fluorescence ratio of 1.01 ± 0.026.
CGAGCTGGTT showed a switch fluorescence ratio of 0.991 ± 0.0027.
Work on TCGGTTTATG yielded a switch fluorescence ratio of 0.994 ± 0.023.
TTCGGGGGAA showed a switch fluorescence ratio of 0.993 ± 0.075.
TAATGGTGTG showed a switch fluorescence ratio of 1 ± 0.022.
In the case of TTTGTGGATG, the switch fluorescence ratio is reported as 0.985 ± 0.03.
TTGGCGAGGA gave a switch fluorescence ratio of 1.003 ± 0.0024.
GCACTGGTAA gave a switch fluorescence ratio of 1.023 ± 0.0071.
TGAAGTATGG gave a switch fluorescence ratio of 0.9517 ± 0.0024.
Work on TGAGAGTAT yielded a switch fluorescence ratio of 1.01 ± 0.034.
TTAGCTTGCT was tested, and the switch fluorescence ratio was 1.019 ± 0.0035.
TGGTAAATCT showed a switch fluorescence ratio of 1 ± 0.036.
Sequence TTTCACGGTA has a switch fluorescence ratio of 1.15 ± 0.11.
TTTTGGAACG was tested, and the switch fluorescence ratio was 0.99 ± 0.031.
Work on ATGGTTTATG yielded a switch fluorescence ratio of 0.9812 ± 0.0077.
With AACCTTAGTC the switch fluorescence ratio was 1.1 ± 0.045.
CCGGGCGGAT showed a switch fluorescence ratio of 1.02 ± 0.0099.
Work on GAGGCCCTGA yielded a switch fluorescence ratio of 0.971 ± 0.035.
In the case of ATGCATGGTA, the switch fluorescence ratio is reported as 1.03 ± 0.009.
For TATAGTGAGG, the switch fluorescence ratio was 1.0603 ± 0.001.
Work on GTTACCGGAC yielded a switch fluorescence ratio of 1.5 ± 0.034.
AGTAGGTAGT was tested, and the switch fluorescence ratio was 0.968 ± 0.019.
AGTGGGATTT gave a switch fluorescence ratio of 0.993 ± 0.039.
TAGTAAAGAT was tested, and the switch fluorescence ratio was 1 ± 0.017.
GAATGGGGGT gave a switch fluorescence ratio of 0.982 ± 0.02.
For TTAGTTGAGA, the switch fluorescence ratio was 1 ± 0.045.
GGGCGACGGC was tested, and the switch fluorescence ratio was 1.04 ± 0.047.
AATTGTAGTT showed a switch fluorescence ratio of 0.9786 ± 0.0048.
Work on GGGTTAACTT yielded a switch fluorescence ratio of 0.999 ± 0.046.
GCTGGGGGTG was tested, and the switch fluorescence ratio was 1.01 ± 0.012.
For CTGTAGTTTT, the switch fluorescence ratio was 1.04 ± 0.038.
With GTTTCTATGG the switch fluorescence ratio was 0.9961 ± 0.0085.
GGATTAATG showed a switch fluorescence ratio of 1.1 ± 0.12.
With GGAGACCTTT the switch fluorescence ratio was 1.03 ± 0.041.
Sequence AATATGGGTG has a switch fluorescence ratio of 1.08 ± 0.01.
Sequence GTAGGCGGGG has a switch fluorescence ratio of 0.99 ± 0.018.
Sequence TAAAAAGACC has a switch fluorescence ratio of 0.976 ± 0.035.
For GGGTAATGGC, the switch fluorescence ratio was 0.971 ± 0.014.
GAAAATAGAT was tested, and the switch fluorescence ratio was 0.9663 ± 0.0028.
CGTGCTCAGG showed a switch fluorescence ratio of 1.162 ± 0.011.
GGTGTTTGCT gave a switch fluorescence ratio of 0.965 ± 0.022.
Work on GCTGTTGGTG yielded a switch fluorescence ratio of 1.002 ± 0.0037.
Work on TCGTTTGGTG yielded a switch fluorescence ratio of 0.986 ± 0.045.
For ATTCCGCCGA, the switch fluorescence ratio was 1.48 ± 0.08.
Sequence AACGCTCGTC has a switch fluorescence ratio of 1.02 ± 0.06.
Sequence TTACGGCGCT has a switch fluorescence ratio of 1.06 ± 0.062.
Sequence TAATACTTTT has a switch fluorescence ratio of 1.07 ± 0.098.
For GTTGAGGGTC, the switch fluorescence ratio was 0.993 ± 0.021.
CGCGGATGGG was tested, and the switch fluorescence ratio was 1.05 ± 0.05.
Sequence TTCTTCGGAT has a switch fluorescence ratio of 1.09 ± 0.11.
In the case of GGGGTCAGGG, the switch fluorescence ratio is reported as 1.02 ± 0.026.
Sequence TTATACATGT has a switch fluorescence ratio of 0.973 ± 0.055.
With TTTTGCTGTA the switch fluorescence ratio was 1.04 ± 0.099.
For AGGGGAGGCT, the switch fluorescence ratio was 0.997 ± 0.045.
Work on GTGTTGGGTG yielded a switch fluorescence ratio of 1.01 ± 0.011.
